Reference: patent US7901879B2, “Lactoferrin in the treatment of malignant neoplasms and other hyperproliferative diseases” (Agennix Incorporated, priority 2002, dated 2011)

Tests used:
[1] = system: Human squamous cell carcinoma (O12); assay: Tumor growth inhibition by rhLF in O12 tumor model in mice (Example 1); assay type: in vivo, athymic nude mice
Description: Human squamous cell carcinoma (O12) was used. The cells were injected into the right flank of athymic nude mice. rhLF was administered either intratumorally (49 animals, 7 doses ranging from 0.05 μg to 125 μg per dose), intravenously (7 animals, 125 ug/dose) or orally (7 animals 20 mg/dose). Control animals were treated with only the vehicle; no rhLF was administered to the control animals. rhLF was administered twice a day for either five days (intravenous group) or eight days (all other groups) starting 11 days after inoculation with tumor cells to allow formation of established tumors.
The efficacy of treatment was evaluated by measuring the solid tumor size during and at the end of the experiment; the body weights were also determined at the time of tumor measurements.

IL-18 = IL-18 levels in small intestine and serum after oral rhLF or bLF (cytokine ELISA); assay type: in vivo, mice; conditions: for IL-18 Intestinal Extract / IL-18 Serum: 24 h after last dose
Description: Recombinant human lactoferrin and bovine lactoferrin were orally administered to mice, and the production of IL-18 in the small intestine was measured.
Mice were treated for three days daily with 65 mg/kg/day of rhLF, 300 mg/kg/day of rhLF or 300 mg/kg/day of bLF. For a control, mice were only administered the pharmaceutical carrier. Twenty-four hours following administration of the LF or control for 3 days, animals were weighed and blood and serum were collected. Serum was used for cytokine ELISA assays.
Also, at these time points, animals were sacrificed and the small intestinal tissue was removed for further analysis. Small intestinal epithelium was homogenized using a lysis buffer consisting of PBS, 1% Nonidet P-40, 0.5% sodium deoxycholate, and 0.1% sodium dodecyl sulphate containing 10 μg/ml PhenylMetheylsulfonyl fluoride. Homogenate was centrifuged at 15,000 rpm for 10 minutes and the supernatant stored at −80 C. till it was tested for IL-18 levels.

GM-CSF = GM-CSF production in small intestine after oral rhLF (ELISA); assay type: in vivo, mice; conditions: oral 300 mg/kg/day three days
Description: Recombinant human lactoferrin or placebo were orally administered to mice, and the production of GM-CSF in the small intestine was measured.
Mice (5 animals per group) were treated for three days daily with 300 mg/kg/day of rhLF. For a control, mice were only administered the pharmaceutical carrier. Twenty-four hours following administration of the LF or placebo for 3 days, animals were and the small intestinal tissue was removed for further analysis. Small intestinal epithelium was homogenized using a lysis buffer consisting of PBS, 1% Nonidet P-40, 0.5% sodium deoxycholate, and 0.1% sodium dodecyl sulphate containing 10 μg/ml PhenylMetheylsulfonyl fluoride. Homogenate was centrifuged at 15,000 rpm for 10 minutes and the supernatant stored at −80 C. till it was tested for GM-CSF levels using an ELISA kit.

metastatic cancer = assay: Oral rhLF in human patients with metastatic cancer, tumor size by CT; assay type: in vivo
Description: Recombinant human lactoferrin was orally administered to human patients with a range of metastatic cancer types that had failed standard chemotherapy in two different studies conducted in multiple centers in four countries (Argentina, Brazil, Chile, U.S.) RhLF was administered at doses of 1.5 to 9 grams daily in two divided doses in cycles of 14 each with a 14 day gap.
Tumor size progression was monitored through CT scans and tumor markers where available. CT scans were performed at baseline and after each 8-week period once treatment was initiated, and also compared with a pre-baseline scan conducted prior to enrollment in the study. Tumor markers are measured every 4 weeks. Blood samples were collected to measure subclasses of circulating lymphocytes and NK cell activity. Plasma, serum and blood cell extract samples were collected to measure circulating IL-18, IL-1, IL-2, and IL-4, IL-5, IL-10, IL-12 and IFN-γ.

[2] = system: O12 human oropharyngeal squamous cell carcinoma tumor cells; assay: Intratumoral rhLF in O12 tumors in nude mice (Example 17); assay type: in vivo, athymic nude mice
Description: O12 human oropharyngeal squamous cell carcinoma tumor cells were injected to the right flank of athymic nude mice. Recombinant human lactoferrin and vehicle controls were dosed via intratumoral injection. Each animal was administered different concentrations of rhLF in 50 μL doses consisting of four separate injections of approximately 12.5 μL of the dose, at different directions and angles (approximately S/N/E/W) to ensure that the dose was distributed evenly throughout the tumor (fanning).
In this study, rhLF was administered directly into the tumor. Each animal was tracked daily for tumor growth by external caliper measurements of the protruding tumor.

circulating lymphocytes = assay: Circulating lymphocytes after intratumoral rhLF in tumor-bearing mice (Example 18); assay type: in vivo, C3H/HeJ mice
Description: Normal C3H/HeJ mice were implanted with one of two mouse tumors following the methodology described in Example 17. Tumors used were SCCVII and RIF mouse tumor cell lines. Following establishment of the tumors in the mice, tumors were injected intratumorally daily for 4 days with 250 or 500 μg rhLF per dose or with vehicle control. Twenty four hours following the last intratumoral injection, animals were sacrificed and the blood examined for lymphocyte populations. The number of circulating lymphocytes were increased by 34% to 56% relative to the placebo treated control animals (Table 14).

[3] = oral 65 mg/kg rhLF versus 300 mg/kg bLF
[4] = oral 65 mg/kg/day for three days
[5] = oral 300 mg/kg rhLF versus 300 mg/kg bLF
[6] = oral 300 mg/kg/day for three days
[7] = oral, rhLF at both doses, bLF 300 mg/kg/day
[8] = intratumoral 250 or 500 μg per dose daily for 4 days, blood 24 h after last injection

B1: Recombinant human lactoferrin (protein, UniProt P02788 20-710, looked up)
Lactotransferrin: GRRRSVQWCAVSQPEATKCFQWQRNMRKVRGPPVSCIKRDSPIQCIQAIAENRADAVTLDGGFIYEAGLAPYKLRPVAAEVYGTERQPRTHYYAVAVVKKGGSFQLNELQGLKSCHTGLRRTAGWNVPIGTLRPFLNWTGPPEPIEAAVARFFSASCVPGADKGQFPNLCRLCAGTGENKCAFSSQEPYFSYSGAFKCLRDGAGDVAFIRESTVFEDLSDEAERDEYELLCPDNTRKPVDKFKDCHLARVPSHAVVARSVNGKEDAIWNLLRQAQEKFGKDKSPKFQLFGSPSGQKDLLFKDSAIGFSRVPPRIDSGLYLGSGYFTAIQNLRKSEEEVAARRARVVWCAVGEQELRKCNQWSGLSEGSVTCSSASTTEDCIALVLKGEADAMSLDGGYVYTAGKCGLVPVLAENYKSQQSSDPDPNCVDRPVEGYLAVAVVRRSDTSLTWNSVKGKKSCHTAVDRTAGWNIPMGLLFNQTGSCKFDEYFSQSCAPGSDPRSNLCALCIGDEQGENKCVPNSNERYYGYTGAFRCLAENAGDVAFVKDVTVLQNTDGNNNEAWAKDLKLADFALLCLDGKRKPVTEARSCHLAMAPNHAVVSRMDKVERLKQVLLHQQAKFGRNGSDCPDKFCLFQSETKNLLFNDNTECLARLHGKTTYEKYLGPQYVAGITNLKKCSTSPLLEACEFLRK
notes: human lactoferrin produced recombinantly
- Inhibition Relative to Placebo ([1]; intratumoral, twice a day for eight days, 0.05 μg to 125 μg per dose, Day 19): 28%
- Inhibition Relative to Placebo ([1]; intratumoral, twice a day for eight days, 0.05 μg to 125 μg per dose, Day 28): 46%
- Inhibition Relative to Placebo ([1]; intravenous 125 ug/dose twice a day for five days, Day 19): 55%
- Inhibition Relative to Placebo ([1]; intravenous 125 ug/dose twice a day for five days, Day 28): 65%
- Inhibition Relative to Placebo ([1]; oral 20 mg/dose twice a day for eight days, Day 19): 76%
- Inhibition Relative to Placebo ([1]; oral 20 mg/dose twice a day for eight days, Day 28): 80%
- IL-18 Intestinal Extract % Increase Over Control (IL-18; oral 65 mg/kg): 725%
- IL-18 Serum % Increase Over Control (IL-18; oral 65 mg/kg): 84%
- IL-18 Intestinal Extract % Increase Over Blf (IL-18; [3]): 75%
- IL-18 Serum % Increase Over Blf (IL-18; [3]): 94%
- IL-18 Intestinal Extract (IL-18; [4]): 7,879 pg
- IL-18 Serum (IL-18; [4]): 259 pg
- IL-18 Intestinal Extract % Increase Over Control (IL-18; oral 300 mg/kg): 775%
- IL-18 Serum % Increase Over Control (IL-18; oral 300 mg/kg): 132%
- IL-18 Intestinal Extract % Increase Over Blf (IL-18; [5]): 85%
- IL-18 Serum % Increase Over Blf (IL-18; [5]): 145%
- IL-18 Intestinal Extract (IL-18; [6]): 8,350 pg
- IL-18 Serum (IL-18; [6]): 328 pg
- effect on amount of IL-18 in the intestinal extract (IL-18; [7]): significantly enhanced
- effect on amount of IL-18 in the serum (IL-18; [7]): significantly enhanced
- GM-CSF Mean (SEM) (GM-CSF; 24 h after last dose): 7.74 (0.19) pg
- GM-CSF Increase over Placebo (GM-CSF; p < 0.01): 19.4% (p < 0.01)
- Post Treatment 1 % Growth (metastatic cancer; Patient # 007, Lung, 7.5 weeks, pretreatment 160% (5.5 weeks)): 13% (7.5)
- Post Treatment 2 % Growth (metastatic cancer; Patient # 007, Lung, 8.5 weeks): 12% (8.5)
- Post Treatment 2 % Growth (metastatic cancer; Patient # 102, Ovarian, 8.5 weeks): −7% (8.5)
- Post Treatment 1 % Growth (metastatic cancer; Patient # 102, Ovarian, 10.5 weeks, pretreatment 30% (21 weeks)): −5% (10.5)
- Post Treatment 2 % Growth (metastatic cancer; Patient # 104, Gastric, 7 weeks): −5% (7)
- Post Treatment 1 % Growth (metastatic cancer; Patient # 104, Gastric, 10 weeks, pretreatment 25% (5.5 weeks)): 10% (10)
- Post Treatment 1 % Growth (metastatic cancer; Patient # 106, Melanoma, 11 weeks, pretreatment 24% (19 weeks)): −18% (11)
- Post Treatment 2 % Growth (metastatic cancer; Patient # 204, Breast, 6.5 weeks): 0% (6.5)
- Post Treatment 1 % Growth (metastatic cancer; Patient # 204, Breast, 10 weeks, pretreatment 40% (8 weeks)): 0% (10)
- patients with stable disease by the RECIST criteria at the first post-treatment scan (metastatic cancer; nine of nineteen evaluable patients, oral 1.5 to 9 grams daily): 47%
- reduction of rates of tumor growth versus pooled placebo ([2]; Group A, single intratumoral dose, day 11 after administration, p<0.05): 50%
- reduction of rates of tumor growth versus pooled control group ([2]; Group C, intratumoral twice daily for 8 days, p<0.01): 56%
- Number of Cells CD3+ (circulating lymphocytes; [8]): 3291
- Number of Cells CD4+ (circulating lymphocytes; [8]): 2621
- Number of Cells CD8+ (circulating lymphocytes; [8]): 1054
- Increase with rhLF, CD3+ (circulating lymphocytes; relative to placebo): 56%
- Increase with rhLF, CD4+ (circulating lymphocytes; relative to placebo): 46%
- Increase with rhLF, CD8+ (circulating lymphocytes; relative to placebo): 34%
